{"source": "paper PMC2873218", "data": [{"target": "microtubules", "sequence (P68363 whole entry, chain 1 of 2)": "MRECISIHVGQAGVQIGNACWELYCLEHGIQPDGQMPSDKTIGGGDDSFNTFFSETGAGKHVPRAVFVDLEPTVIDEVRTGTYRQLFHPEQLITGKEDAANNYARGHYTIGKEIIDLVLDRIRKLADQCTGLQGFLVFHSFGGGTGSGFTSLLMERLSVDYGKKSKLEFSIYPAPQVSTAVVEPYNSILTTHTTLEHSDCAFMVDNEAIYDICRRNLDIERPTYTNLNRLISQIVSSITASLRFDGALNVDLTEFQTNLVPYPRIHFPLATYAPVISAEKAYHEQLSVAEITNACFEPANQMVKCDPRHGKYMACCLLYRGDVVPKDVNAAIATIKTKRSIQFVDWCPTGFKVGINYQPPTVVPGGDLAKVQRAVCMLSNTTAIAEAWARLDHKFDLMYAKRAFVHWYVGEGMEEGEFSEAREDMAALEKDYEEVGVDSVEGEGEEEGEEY", "sequence (A8K068 whole entry, chain 2 of 2, further chain)": "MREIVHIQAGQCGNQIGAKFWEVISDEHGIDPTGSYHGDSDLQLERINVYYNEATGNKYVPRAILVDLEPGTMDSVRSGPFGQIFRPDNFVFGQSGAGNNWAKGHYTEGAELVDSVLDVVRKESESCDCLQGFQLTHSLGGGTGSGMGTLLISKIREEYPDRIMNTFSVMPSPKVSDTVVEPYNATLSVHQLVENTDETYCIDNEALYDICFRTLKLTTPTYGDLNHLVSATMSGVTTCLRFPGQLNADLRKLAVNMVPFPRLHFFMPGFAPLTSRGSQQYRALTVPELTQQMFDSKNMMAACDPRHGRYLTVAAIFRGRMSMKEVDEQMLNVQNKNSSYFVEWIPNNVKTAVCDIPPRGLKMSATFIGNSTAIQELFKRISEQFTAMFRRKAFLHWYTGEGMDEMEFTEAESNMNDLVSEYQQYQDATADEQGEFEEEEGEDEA", "assay": "co-sedimentation", "units": {"Kd": "µM"}, "values": [{"substance": "C. elegans KMN network containing KNL-1SD (from UniProt P34278 1-1010; Q17635 1-590) (complex)", "Kd": 2.1}, {"substance": "C. elegans KMN network containing KNL-1SD and the MIS-12SD complex (from UniProt P34278 1-1010; Q17635 1-590)", "Kd": 5.3}, {"substance": "C. elegans KMN network containing KNL-1SD and the NDC-80SD complex (from UniProt P34278 1-1010; Q17635 1-590)", "Kd": 4.9}]}]}
